The record followed here is US6428997.

Data set [1] deals with T1, methionyl oligopeptide of SEQ ID NO: 1 (Met-Phe-Pro-Thr-Glu-Pro-Ser).
T1 chain: MFPTEPS

Data set [2] has as its target T2, leucyl oligopeptide of SEQ ID NO: 2.
T2 chain: LFPTEPS

B1: Aeromonas proteolytica (Vibrio proteolytica) aminopeptidase (protein)
chain: MPPITQQATVTAWLPQVDASQITGTISSLESFTNRFYTTTSGAQASDWIASEWQALSASLPNASVKQVSHSGYNQKSVVMTITGSEAPDEWIVIGGHLDSTIGSHTNEQSVAPGADDDASGIAAVTEVIRVLSENNFQPKRSIAFMAYAAEEVGLRGSQDLANQYKSEGKNVVSALQLDMTNYKGSAQDVVFITDYTDSNFTQYLTQLMDEYLPSLTYGFDTCGYACSDHASWHNAGYPAAMPFESKFNDYNPRIHTTQDTLANSDPTGSHAKKFTQLGLAYAIEMGSATGDTPTPGNQ
For the protein B1, in data set [1], the Kcat/Km came out at 3.76 mM⁻¹ s⁻¹; the Michaelis-Menten constant (Km) (commonly the concentration of substrate that gives half-maximal velocity) was found to be 0.956 mM; the kcat (as a rule, the number of substrate molecules converted per active site and unit of time at saturation) was 3.23 s⁻¹. In data set [2], the Kcat/Km is 211 mM⁻¹ s⁻¹, the Km was 0.336 mM and the kcat turned out to be 70.3 s⁻¹.
